Source: US20240262894A1 (INSTITUTE OF MICROBIOLOGY CHINESE ACADEMY OF SCIENCES, published 2024)

Legend:
[1] = molecular target: T1, F protein of RSV B-type clinical isolates (on virus) (respiratory syncytial virus B-type …); test: cell-based or functional assay
[2] = molecular target: T2, F protein of RSV A-type A2 strain (on virus) (respiratory syncytial virus A-type A2 …, UniProt P03420 26-574); test: cell-based or functional assay
[3] = molecular target: F protein of RSV A-type Long strain (on virus) (respiratory syncytial virus A-type Long …, UniProt P12568 26-574); test: cell-based or functional assay
[4] = molecular target: T1, F protein of RSV B-type clinical …; test: cell-based or functional assay; remark: listed apart in the source
[5] = molecular target: T2, F protein of RSV A-type A2 strain (on …); test: cell-based or functional assay; remark: listed apart in the source
[6] = molecular target: T3, pre-fusion F protein DS-Cav1 of RSV A2 strain (respiratory syncytial virus A2 strain); test: SPR (Biacore), F protein immobilised on CM5 chip, Fab as analyte
T3 construct: Purified from 293T cells; also called RSV-F (DS-Cav1); RSV pre-fusion F protein

[7] = molecular target: T4, post-fusion F protein (FΔFP) of RSV A2 strain (respiratory syncytial virus A2 strain, UniProt P03420 26-513); test: as above
T4 construct: also called RSV-FΔFP; RSV post-fusion F protein

[8] = molecular target: F protein of RSV A-type Long strain (on virus) (respiratory syncytial virus A-type Long …, UniProt P12568 26-574); test: cell-based or functional assay; remark: listed apart in the source
[9] = molecular target: F protein of RSV A-type A2 strain (on virus) (respiratory syncytial virus A-type A2 …, UniProt P03420 26-574); test: cell-based or functional assay; remark: listed apart in the source

B1: RV11 antibody (human IgG1) (antibody, V domains shown)
VH: QVQLVQSGGGVVQPGRSLRLSCAASGFSFTNYGMHWVRQAPGKGLEWVAVISYDDGSDKYYADSVKGRFTISRDNSKNTLYLQMNSLRAEDTAVYYCVRDPTGDYGDFPEQDGYYYYYGMDVWGQGTTVTVSS
VL: QAVLTQPPSASGTPGQRVTISCSGSSLNIGSNYVYWYQQLPGTAPKFLIYKNNQRPSGVPDRFSGSKSGTSASLAISGLRSEDEADYYCAAWDDSLSGVVFGGGTKLTVLG
[1]
  IC50 (ng/mL), neutralization of RSV B-type clinical isolates on Hep2 cells, flow cytometry: 31.4 ng/mL
[2]
  neutralization activity against RSV A2 relative to palivizumab: ~18 times
[3]
  neutralization activity against RSV Long relative to palivizumab: ~16 times
[4]
  neutralization activity against RSV B-type clinical isolates relative to palivizumab: ~45 times
[5]
  IC50 (ng/mL), neutralization of RSV A-type A2 strain on Hep2 cells, flow cytometry: 42.3 ng/mL

B2: RV8 antibody (human IgG1) (antibody, V domains shown)
VH: QVQLVQSGGGVVQPGRSLRLSCAASGFTFSSYAMHWVRQAPGKGLEWMAVISYDGSNTYYADSVKGRFTISRDNSKNTLYLQMNSLRAEDTAMFYCARDYCSRGTCYHDYWGQGTLVTVSS
VL: DIVLTQSPSSLSASVGDRVTITCRASQDIRNDLSWYQQKPGKAPKLLIYAASSLQSGVPSRFSGSGSGTDFTLTISSLQPEDFATYSCLQDYNYPQTFGQGTKVEIKR
[1]
  IC50 (ng/mL), neutralization of RSV B-type clinical isolates on Hep2 cells, flow cytometry: 183 ng/mL
[4]
  neutralization activity against RSV B-type clinical isolates relative to palivizumab: 7.7 times
[5]
  IC50 (ng/mL), neutralization of RSV A-type A2 strain on Hep2 cells, flow cytometry: 540 ng/mL

B3: RV8 Fab (Fab, V domains shown)
VH: B2 VH
VL: B2 VL
notes: Fab made by enzyme digestion of the human IgG1/kappa antibody; also called Fab of RV8 antibody; not shown: limits not st
[6]
  Kd: 25.6 nM
[7]
  Kd: 17.5 nM

B4: RV7 Fab (Fab, V domains shown)
VH: QVQLQESGPGLVKPSETLSLTCTVSGGSISSYYLSWIRQPPGKGLEWIGYIYHTGSTNYNPSLKSRVTISVHSSKNQFSLKLTSVTAADTAVYYCARHMRIVTTIDYWGQGTLVTVSS
VL: DIVMTQSPSSLSASVGDRVTLTCRASQGISSYLAWYQQKPGKVPKLLIYAASTLQSGVPSRFSGSGSGTDFTLTISSLQPEDVATYYCQKYNSAPWTFGQGTKVEIKR
notes: Fab made by enzyme digestion (immobilised enzyme beads, Thermo 20341) of the human IgG1/kappa antibody; also called Fab of RV7 antibody; not shown: limits not st
[6]
  binding result: no binding
[7]
  binding result: no binding

B5: RV10 Fab (Fab, V domains shown)
VH: QVQLVQSGAEVKKPGASVKVSCKASGYTFTTYDFHWVRQAPGQGLEWIGWLNPDNGNTKHSQKFQGRVTFTRDTSASTAFMELSSLRSEDTAVYYCTRAPWWWYFDYWGQGTLVTVSS
VL: NFMLTQPHSVSESPGKTVTISCTRSSGSIASNYVQWCQQRPGSSPTTVIYEDNQRPSGVPDRFSGSIDSSSNSASLTISGLRTEDEADYYCQSYDTSNAVFGGGTKLTVLG
notes: Fab made by enzyme digestion of the human IgG1/lambda antibody; also called Fab of RV10 antibody; not shown: limits not st
[6]
  Kd: 10.1 nM
[7]
  Kd: 7.1 nM

B6: Palivizumab (antibody, V domains shown)
VH: QVTLRESGPALVKPTQTLTLTCTFSGFSLSTSGMSVGWIRQPPGKALEWLADIWWDDKKDYNPSLKSRLTISKDTSKNQVVLKVTNMDPADTATYYCARSMITNWYFDVWGAGTTVTVSS
VL: DIQMTQSPSTLSASVGDRVTITCKCQLSVGYMHWYQQKPGKAPKLLIYDTSKLASGVPSRFSGSGSGTEFTLTISSLQPDDFATYYCFQGSGYPFTFGGGTKLEIK
[8]
  IC50 (ng/mL), neutralization of RSV A-type Long strain on Hep2 cells, flow cytometry: 897 ng/mL
[9]
  IC50 (ng/mL), neutralization of RSV A-type A2 strain on Hep2 cells, flow cytometry: 751 ng/mL
